Molecular target: T1, LAMB3 (human, UniProt Q13751 18-1172)
T1 sequence (looked up): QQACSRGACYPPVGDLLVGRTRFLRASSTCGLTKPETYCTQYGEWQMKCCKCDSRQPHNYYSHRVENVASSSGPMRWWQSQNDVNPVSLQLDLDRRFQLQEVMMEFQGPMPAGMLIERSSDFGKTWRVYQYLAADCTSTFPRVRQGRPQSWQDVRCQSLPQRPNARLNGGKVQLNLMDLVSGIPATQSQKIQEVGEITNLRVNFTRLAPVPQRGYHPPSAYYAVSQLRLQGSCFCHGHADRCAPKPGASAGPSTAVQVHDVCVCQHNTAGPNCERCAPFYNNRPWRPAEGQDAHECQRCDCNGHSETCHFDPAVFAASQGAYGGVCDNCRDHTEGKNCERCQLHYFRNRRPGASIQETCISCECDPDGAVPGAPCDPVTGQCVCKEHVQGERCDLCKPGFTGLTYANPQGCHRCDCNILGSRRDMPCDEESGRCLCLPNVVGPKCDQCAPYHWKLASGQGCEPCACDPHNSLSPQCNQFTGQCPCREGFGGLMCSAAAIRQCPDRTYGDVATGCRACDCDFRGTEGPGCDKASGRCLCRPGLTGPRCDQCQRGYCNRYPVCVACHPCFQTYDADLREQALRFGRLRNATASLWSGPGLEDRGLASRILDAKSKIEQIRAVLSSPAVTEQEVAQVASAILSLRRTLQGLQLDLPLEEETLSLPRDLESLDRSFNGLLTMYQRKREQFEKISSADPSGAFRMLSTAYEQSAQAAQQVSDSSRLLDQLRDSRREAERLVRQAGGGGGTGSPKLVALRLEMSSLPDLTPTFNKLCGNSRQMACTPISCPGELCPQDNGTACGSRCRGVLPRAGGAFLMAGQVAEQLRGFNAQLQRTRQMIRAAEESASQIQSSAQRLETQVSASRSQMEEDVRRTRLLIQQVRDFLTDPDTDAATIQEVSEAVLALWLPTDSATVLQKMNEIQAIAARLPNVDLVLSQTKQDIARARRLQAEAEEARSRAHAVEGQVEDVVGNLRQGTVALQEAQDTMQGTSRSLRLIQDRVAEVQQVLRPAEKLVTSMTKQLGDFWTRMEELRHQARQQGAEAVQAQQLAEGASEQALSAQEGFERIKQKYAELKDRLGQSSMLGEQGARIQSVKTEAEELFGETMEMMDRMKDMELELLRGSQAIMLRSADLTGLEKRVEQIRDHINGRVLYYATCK
Assay: IP/MS, LZTR1 wild type-FLAG, U87
Outline: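 Gel slices were reduced with 5 mM DTT, alkylated with 11 mM IAA and digested overnight at 37° C. with trypsin. Peptides were analysed on an Orbitrap Fusion Tribrid by LC-MS/MS.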

B1: LZTR1-FLAG (other, human, UniProt Q8N653 1-840, looked up)
chain: MAGPGSTGGQIGAAALAGGARSKVAPSVDFDHSCSDSVEYLTLNFGPFETVHRWRRLPPCDEFVGARRSKHTVVAYKDAIYVFGGDNGKTMLNDLLRFDVKDCSWCRAFTTGTPPAPRYHHSAVVYGSSMFVFGGYTGDIYSNSNLKNKNDLFEYKFATGQWTEWKIEGRLPVARSAHGATVYSDKLWIFAGYDGNARLNDMWTIGLQDRELTCWEEVAQSGEIPPSCCNFPVAVCRDKMFVFSGQSGAKITNNLFQFEFKDKTWTRIPTEHLLRGSPPPPQRRYGHTMVAFDRHLYVFGGAADNTLPNELHCYDVDFQTWEVVQPSSDSEVGGAEVPERACASEEVPTLTYEERVGFKKSRDVFGLDFGTTSAKQPTQPASELPSGRLFHAAAVISDAMYIFGGTVDNNIRSGEMYRFQFSCYPKCTLHEDYGRLWESRQFCDVEFVLGEKEECVQGHVAIVTARSRWLRRKITQARERLAQKLEQEAAPVPREAPGVAAGGARPPLLHVAIREAEARPFEVLMQFLYTDKIKYPRKGHVEDVLLIMDVYKLALSFQLCRLEQLCRQYIEASVDLQNVLVVCESAARLQLSQLKEHCLNFVVKESHFNQVIMMKEFERLSSPLIVEIVRRKQQPPPRTPLDQPVDIGTSLIQDMKAYLEGAGAEFCDITLLLDGHPRPAHKAILAARSSYFEAMFRSFMPEDGQVNISIGEMVPSRQAFESMLRYIYYGEVNMPPEDSLYLFAAPYYYGFYNNRLQAYCKQNLEMNVTVQNVLQILEAADKTQALDMKRHCLHIIVHQFTKVSKLPTLRSLSQQLLLDIIDSLASHISDKQCAELGADI
notes: Expressed in HEK 293T, HeLa or U87 cells; used as cell lysate; also called LZTR1 wild type-FLAG; LZTR1 WT; not shown: FLAG tag at the C-terminus
- binding result: binds
